Measurements taken from patent US20190375821A1.
pKd: −log10 of the molar value.

Target: VEGF165 (UniProt P15692)
Experiment: ELISA, plate coated with VEGF, anti-human Fc-HRP detection

VEGF165, sequence (P15692 other isoform, or with tags, fused parts or gaps limits assumed): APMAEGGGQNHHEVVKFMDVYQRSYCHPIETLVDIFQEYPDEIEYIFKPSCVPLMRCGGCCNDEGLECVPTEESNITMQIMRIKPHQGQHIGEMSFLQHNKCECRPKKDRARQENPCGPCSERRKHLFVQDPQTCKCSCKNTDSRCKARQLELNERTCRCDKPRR

VEGF-trap (aflibercept) (Fc fusion)
pKd: 12.30
